Results on one protein are retold here after doi:10.1101/2023.11.26.568766 (bioRxiv, 2023).

This data set concerns the molecule itself. Kind of data set: crystal structure.

B1: XccOpgD (D379N), OpgD from Xanthomonas campestris pv. campestris (enzyme)
chain: AKAVGLRRLGQPQPFDYAWLKGQARALAKAPYKSHKQVLPGPLESLNWDQYQSIRYRQDHALWADGNGKFQAKFFHLGLYFHTPVHIYDIVDGKAQQLAYDPAAFDYGRSGLGGKQLPKDLGFAGFRLNTRKDTDRDFSAFLGASYFRAVGKEGQYGQSARGLAIDTGTGGPEEFPDFIAYYLEQPADDSDTVVVYGLLDSPSVSGAYRFAITNGEVLVMDIDSALYPRKAIERLGIGPCTSMYQTGENDRRMDWDWRPEIHDTDGLAMWTGGGEWIWRPLCNPPHLRFNMFVDENPRGFGLLQRDRNFDHYQDDGVFYEKRPCLWVEPKSGWGKGSVQLVEIPTVDETFNNIVAFWNPQAKPQPGQELLMGYRLYWGAHPPASSPLAHCVATRTGLGGIVGQKRSHFSWRFAVDFAGGELAALAKDPKAKVEAVLQVSRGTTEIVSARPLHELKGYRAMFDLVPPDEGTQQIDIRLFLRANGKPLTETWLYQWTPPPASERKIY
For B1, the binding result is reported as “binds”.
